Our source for the amyloid nucleation score values is the supplement of paper PMC12042874.

± gives the uncertainty stated by the source.

This data set is described as follows: amyloid nucleation score (Sup35N fusion, yeast selection) (log enrichment); library NNK1; higher = more nucleation; inactive = no reads after selection. The method in brief: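 Libraries of peptides of 20 random codons fused to Sup35N were expressed in psi-negative yeast and induced 24 hours with 100 μM copper sulfate. Selection was 7 days at 30°C on medium lacking adenine and uracil, and plasmid inserts were Illumina-sequenced before and after selection. Nucleation score is the DiMSum log enrichment of output over input reads, centred on the mode score of non-aggregating sequences, and sequences with under 100 input reads were left out.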

Regarding FNLISGKIGYRLLQTCIMMM, the amyloid nucleation score is -0.963 ± 0.51.

For ATRVFLHIATQRSNLAYLPN, the amyloid nucleation score was -0.189 ± 0.25.

With FQGRNYECIFVDFLRSQKGV, the amyloid nucleation score stood at 0.292 ± 1.2.

NSIVWSMC gave an amyloid nucleation score of 0.409 ± 0.42.

In turn, VVVSLK gave an amyloid nucleation score of -0.916 ± 0.86.

FFNRTKTHEVDADGALSTL: the amyloid nucleation score is 0.508 ± 0.88.

On to GNVIGGNMVVQWYSFCTVCV, for which the amyloid nucleation score is 6.342 ± 0.062.

As for QYSVHINNVTLRPKHRYVQ, the amyloid nucleation score is -0.065 ± 0.29.

CISAVPCM displayed an amyloid nucleation score of 0.497 ± 0.43.

For LLSFAITCDSPVSRSVLFIR, the amyloid nucleation score is -0.53 ± 0.58.

As to HGSIQSV, the amyloid nucleation score result was “inactive”.

CDWSCSDSVCFITLCKYDDC gave an amyloid nucleation score of 6.921 ± 0.047.

As to LRCLANVDSIICNSV, the amyloid nucleation score was -0.071 ± 0.9.

The substance GLLGGIGRRRTMG returned an amyloid nucleation score of -0.643 ± 0.46.

The substance ELGPRPHTFLEFAGICVGGM showed an amyloid nucleation score of -0.422 ± 1.4.

For the substance DMYYNQTRVQKPPVMPQSLK, the amyloid nucleation score is -0.667 ± 0.78.

GWHLHFC came in with an amyloid nucleation score of 0.492 ± 0.22.

With FRSFKNTY, the amyloid nucleation score was -1.3 ± 0.45.

As to ISPCDIYRHLSIKGQSCDLI, the amyloid nucleation score came out at 0.004 ± 0.32.

The substance YFAVDDNYLHIQTSVRSRCS gave an amyloid nucleation score of 0.036 ± 0.41.

In turn, SLCTFLGFWGHVFSLRVNRL registered an amyloid nucleation score of -0.156 ± 1.1.

As for IKMYACMYWLVEFLVN, the amyloid nucleation score was -0.046 ± 0.86.

Substance VISMTKMLAWFTGLVYGYYG displayed an amyloid nucleation score of -0.21 ± 0.35.

KTCWTILSVLLTLK registered an amyloid nucleation score of 0.489 ± 0.58.

Regarding TTLNEELYSLVVSRDWGDSN, the amyloid nucleation score entry was “inactive”.

VQGYKVRLSGRNFGCNCASK registered an amyloid nucleation score of -1.85 ± 1.8.

The substance LWLRCLSIAAGIHQ displayed an amyloid nucleation score of 2.31 ± 0.12.

Turning to WLSSLARIWSRQMREYNS, the amyloid nucleation score worked out at 0.64 ± 0.44.

The substance YDFTDFPSPTFRYFVLIGNA displayed an amyloid nucleation score of 0.333 ± 0.54.

Substance LIKYFNINYNGCSAVPWGSP displayed an amyloid nucleation score of 5.981 ± 0.056.

Take IYFGSCSRLWPHHVNT: the amyloid nucleation score was found to be 0.436 ± 0.73.

As to SSKCDLIDCSSD, the amyloid nucleation score result was “inactive”.

Consider SSLVVAWF, for which the amyloid nucleation score was found to be 0.219 ± 0.21.

Take SNFGIIYM: the amyloid nucleation score entry was “inactive”.

The substance GVVSKQSYVRITLGTGPSGE yielded an amyloid nucleation score of 0.476 ± 1.2.

In turn, HQTEEISKSSFFQCNMVQCW displayed an amyloid nucleation score of 2.94 ± 0.071.

Substance NMGNLFNICETGNLL displayed an amyloid nucleation score of 0.296 ± 0.66.

In turn, CRFMSVICHTLFWTPLTFYY had an amyloid nucleation score of 0.592 ± 0.83.

For NVNEDRPAGALVLEFLNRTL, the amyloid nucleation score is 1.47 ± 0.69.

The substance QLLAVMWKGHHVYRELCGRL showed an amyloid nucleation score of -0.549 ± 0.46.

The substance LWAFIIGIVSTTLLGYKPFH registered an amyloid nucleation score of -0.344 ± 1.1.

On to QLSFCYHLCWVICEGMVLEV, for which the amyloid nucleation score was -0.245 ± 0.42.

Substance SVSFEDDISMASGCCFLRGC had an amyloid nucleation score of -0.146 ± 0.25.

Substance GNLLRTSIDRLLYSWSTIVV registered an amyloid nucleation score of -0.187 ± 0.46.

In turn, LFVNFGTLS registered an amyloid nucleation score of 0.391 ± 0.41.

In turn, RLPRQYVMG displayed an amyloid nucleation score of -0.279 ± 0.66.

ADFKEFECDLARPLLGIKFL: the amyloid nucleation score amounted to 0.054 ± 0.91.

For SCTVLWDKFDRLLWCSK, the amyloid nucleation score result was “inactive”.

Take EEYNVNCTSFVGRFSRC: the amyloid nucleation score was -0.008 ± 0.5.

NLMYAGIRLKGEICTNQVSF returned an amyloid nucleation score of 0.371 ± 0.16.

For VCWLGIKCVRVISNWLCAQS, the amyloid nucleation score was -1.04 ± 1.6.

In turn, ASVFLNQLLPCNYSAVRMGS had an amyloid nucleation score of 0.134 ± 0.84.

For the substance NGHSVASSVDAVMLCRYRGK, the amyloid nucleation score worked out at 0.688 ± 0.69.

The substance YVLSFYHQVGPALGFIRQWI gave an amyloid nucleation score of -1.04 ± 0.69.

Regarding VCYAKTAVFSMCGFIWSR, the amyloid nucleation score was determined as 0.163 ± 0.77.

Substance FSYRWGLVFSFRDVKLL displayed an amyloid nucleation score of 2.27 ± 0.11.

For the substance TKWLLFLVRTRHVMMCGGVM, the amyloid nucleation score result is “inactive”.

With IFRTIERTVSIFNRSSR, the amyloid nucleation score was 0.222 ± 0.72.

Consider DCESVWSIKGNKPMLFDRIL, for which the amyloid nucleation score was -1.45 ± 1.7.

In turn, VSMRN gave an amyloid nucleation score of 0.305 ± 0.21.

As for VGWLRFIRWYDPRLENWRTG, the amyloid nucleation score worked out at 0.235 ± 0.78.

AFAVTASAITTVPPYREFVG: the amyloid nucleation score is -0.545 ± 0.82.

Substance GLEDRNRWKVWFITLCRGIA displayed an amyloid nucleation score of 0.71 ± 1.1.

Turning to HFYFIYCSQIQVFKQV, the amyloid nucleation score amounted to 7.422 ± 0.065.

Regarding CSDRRS, the amyloid nucleation score was -0.054 ± 0.53.

The substance TVRLTRTRV yielded an amyloid nucleation score of -0.474 ± 0.86.

As to NGQRDIEYLSLFSPVGTMNS, the amyloid nucleation score was -0.518 ± 0.43.

Consider WCYVYRSRRVSMTSWVLRTQ, for which the amyloid nucleation score is 0.19 ± 0.26.

With FVNFWN, the amyloid nucleation score is 0.473 ± 0.53.

Regarding CFFILW, the amyloid nucleation score is -0.066 ± 0.55.

ISWYGFAT: the amyloid nucleation score result was “inactive”.

Turning to NEIYKTA, the amyloid nucleation score is -1.12 ± 2.7.

Consider TVSMSMAYHVK, for which the amyloid nucleation score was found to be 2.27 ± 0.25.

CLVVPCD gave an amyloid nucleation score of 0.151 ± 0.42.

TIVELFYDRSLR: the amyloid nucleation score was 1.17 ± 0.33.

With ERQLKEEY, the amyloid nucleation score was 0.06 ± 0.33.

Substance FVLRTFQVDNSRQDTTNVST showed an amyloid nucleation score of 0.309 ± 0.48.

The substance TSCFGVWRHVLSRHSFRTSV yielded an amyloid nucleation score of 4.17 ± 0.13.

In turn, LLCYMRGYPSCL returned an amyloid nucleation score of 0.512 ± 0.36.

In the case of MMYSIVRMLAFNAWSMR, the amyloid nucleation score stood at 0.681 ± 0.49.

The substance IVMCTVGKSLMIAQKDHAWA came in with an amyloid nucleation score of -0.109 ± 0.61.

In the case of NDVPLLWVISASCG, the amyloid nucleation score was determined as 1.02 ± 0.44.

For the substance RRVSLH, the amyloid nucleation score worked out at 0.416 ± 0.6.

For VHSVLKWLRWDSIPCIVLIR, the amyloid nucleation score was -0.487 ± 0.32.

For DSFMAENMWGLFFDKSESPA, the amyloid nucleation score was -0.517 ± 0.95.

Turning to YRLCSMSMRCGLRSIFSNRL, the amyloid nucleation score is 0.606 ± 0.57.

QDLTEWTYSLAPFMVFHTRP registered an amyloid nucleation score of -0.519 ± 1.2.

In turn, WVAVRDMKGYRSRKKGQSWH came in with an amyloid nucleation score of 0.199 ± 0.5.

In the case of RYGVGLCAYMFFSCVDFRSG, the amyloid nucleation score worked out at 1.65 ± 0.4.

Take LDFKDSGLYLPYKGNYGSV: the amyloid nucleation score was 0.378 ± 0.68.

YYEAGQEPVNGMCSP came in with an amyloid nucleation score of 0.07 ± 1.1.

FRRIFSWACPV gave an amyloid nucleation score of 0.352 ± 0.58.

For VMADYVDNSHMVVMQTCVCM, the amyloid nucleation score was 7.667 ± 0.061.

As to FINRGAGPTLSRGQSRYNSA, the amyloid nucleation score stood at 0.011 ± 0.3.

In turn, ADNFIGVVYTMLVRRYMPNS displayed an amyloid nucleation score of -1.65 ± 1.2.

IDMCYWISVPAKNVHVIDIP: the amyloid nucleation score worked out at 1.29 ± 0.6.

AIDSVNMTTLRWM yielded an amyloid nucleation score of 0.292 ± 0.62.

Regarding YIDSLISLITDSCMNHRDGR, the amyloid nucleation score was -0.29 ± 1.1.

Consider CPVWELLKDCMCHKNGLFCT, for which the amyloid nucleation score was determined as 1.28 ± 0.58.

For the substance INRVSLCTVEAVLSHEDACG, the amyloid nucleation score is -0.494 ± 0.32.

For the substance LFWNFRRTGAGLAAGLVVGL, the amyloid nucleation score is -0.885 ± 1.4.

RFAAFIEQGFTTKK registered an amyloid nucleation score of 1.87 ± 0.14.

MPVFSFLWPMKDMPHKVLS returned an amyloid nucleation score of 0.364 ± 0.36.

Substance FSFYS registered an amyloid nucleation score of -0.44 ± 0.65.

HHSYKYCKLAFWTRSSKWNR registered an amyloid nucleation score of 0.7 ± 0.71.

Regarding SWRGICV, the amyloid nucleation score result was “inactive”.

Consider CIILKTIPIIDY, for which the amyloid nucleation score entry was “inactive”.

On to ILNGSPKWNGWRTITCSAVS, for which the amyloid nucleation score was determined as 0.667 ± 0.44.

Turning to YYNFCMDRRLLDNGTNGSKS, the amyloid nucleation score is -0.016 ± 1.7.

Turning to NVCLLGRLRFYVVLTGIRDL, the amyloid nucleation score was -0.34 ± 0.74.

RLCRYLKYRYG: the amyloid nucleation score turned out to be 0.839 ± 1.1.

RLRFLNYTDAG came in with an amyloid nucleation score of -1.2 ± 1.5.

In the case of YRLRYI, the amyloid nucleation score entry is “inactive”.

For the substance AIVSGRTFDKPNMKRCL, the amyloid nucleation score was -1.44 ± 0.69.

FFNDPA yielded an amyloid nucleation score of -0.311 ± 0.47.

The substance AAVRALLYRCVVHVRFFFKE had an amyloid nucleation score of 1.06 ± 0.54.

TFGTKRRLGL returned an amyloid nucleation score of 1.47 ± 0.5.

In the case of MCYVRMTFGTRDCHERVSLS, the amyloid nucleation score entry was “inactive”.

Regarding FSRNAAYMIICSTGRRKFWH, the amyloid nucleation score worked out at 3.75 ± 0.074.

The substance LHHRSLFDCESNTAGSPRFV showed an amyloid nucleation score of -0.279 ± 0.47.

The substance VVRPAPRDKPTGPSLCLWGN registered an amyloid nucleation score of 0.086 ± 0.42.

Turning to VWYVLMSSSVTYYLSR, the amyloid nucleation score was -0.075 ± 0.55.

As to FTRDVYRWKYPNYLVKYSTP, the amyloid nucleation score was -0.199 ± 0.85.

As for GGLCTLVVAVGDSWIDRR, the amyloid nucleation score is -0.34 ± 0.43.

With MINTTMRSDRRNNWLG, the amyloid nucleation score is 2.94 ± 0.064.

TPSTQLALWAIYFHRRLFES yielded an amyloid nucleation score of -0.54 ± 1.3.

In turn, SAICRYVF had an amyloid nucleation score of 0.768 ± 0.66.

Substance IIIYRNYALMEYDVGRV came in with an amyloid nucleation score of 0.75 ± 0.76.

RTMEYAPGCLVAFDYK registered an amyloid nucleation score of 0.24 ± 0.44.

DWVVFWIRSFILSPPRAHQN showed an amyloid nucleation score of 0.025 ± 0.41.

With VMMRTSSARMGLLLDVTCGN, the amyloid nucleation score came to 0.058 ± 0.61.

As for NWGVIVMFTYYRSSSGNLAC, the amyloid nucleation score came to 1.35 ± 0.45.

AFMGPWEPFLVHFTRRPSPY gave an amyloid nucleation score of -0.856 ± 2.4.

For the substance VFYLCFTSQYYLSAGTVNAW, the amyloid nucleation score was found to be 4.99 ± 0.064.

In turn, SHIMRRFLWVELAQ showed an amyloid nucleation score of -1.18 ± 1.1.

For the substance NTIRFAHLLV, the amyloid nucleation score is -0.318 ± 0.35.

NVGSLVHAAW: the amyloid nucleation score is -0.613 ± 1.3.

Substance KAEMFNYLTNHTP displayed an amyloid nucleation score of -0.033 ± 1.1.

With DIGRSAGRGVFVFSLLCNKW, the amyloid nucleation score amounted to 3.63 ± 0.18.

INYRLYGVIGVAGTGPG yielded an amyloid nucleation score of 0.1 ± 0.33.

Consider SLQHGYVVYVIVFLDATSNT, for which the amyloid nucleation score is -0.186 ± 0.86.
